Biological target: T1, human α-CGRP (1-37, WT) (human, not fully specified; C-terminal amide; N-terminally biotinylated when captured on the chip; 125I-labelled in the radioligand assay)
T1 construct: also called full length human α-CGRP
T1 peptide: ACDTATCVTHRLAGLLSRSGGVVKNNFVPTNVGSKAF
Test: Biacore competition: 50 nM G1 Fab + 10 uM peptide, over human α-CGRP on SA chip
Description: All Biacore assays were conducted in HBS-EP running buffer (10 mM HEPES pH 7.4, 150 mM NaCl, 3 mM EDTA, 0.005% v/v polysorbate P20). CGRP surfaces were prepared by diluting the N-biotinylated CGRP to a concentration of less than 0.001 mg/mL into HBS-EP buffer and injecting it across the SA sensor chip using variable contact times. […] Samples were typically injected for 1 minute at 100 μL/min and dissociation times of at least 10 minutes were allowed. […] An entire titration series (typically generated in duplicate) was fit globally to a 1:1 Langmuir binding model using the BIAevaluation program. This returned a unique pair of association and dissociation kinetic rate constants (respectively, kₒₙ and koff) for each binding interaction, whose ratio gave the equilibrium dissociation constant (KD=koff/kₒₙ).

B1: anti-CGRP antibody G1, Fab fragment (Fab, V domains shown)
VH: EVQLVESGGGLVQPGGSLRLSCAASGFTFSNYWISWVRQAPGKGLEWVAEIRSESDASATHYAEAVKGRFTISRDNAKNSLYLQMNSLRAEDTAVYYCLAYFDYGLAIQNYWGQGTLVTVSS
VL: EIVLTQSPATLSLSPGERATLSCKASKRVTTYVSWYQQKPGQAPRLLIYGASNRYLGIPARFSGSGSGTDFTLTISSLEPEDFAVYYCSQSYNYPYTFGQGTKLEIK
notes: Fab expressed in E. coli; the vector adds the CH1 constant domain of human IgG2 (Ig gamma-2 chain C region, P01859) and the human kappa light chain constant domain (CAA09181); purified on Ni-NTA, tag not described
percentage of binding blocked by competing peptide: 100%

Reference: patent US20230235032A1 (published 2023)
